Experimental data: doi:10.1101/2021.09.27.462041

Key:
Experiment in all cases: SPR
[1] = molecular target: H3K36me3 11-mer histone H3 tail peptide
[2] = molecular target: H3K4me3 11-mer histone H3 tail peptide
[3] = molecular target: H3K9me3 11-mer histone H3 tail peptide
[4] = molecular target: H3K27me3 11-mer histone H3 tail peptide

Kd [1]: 32.1 nM
koff [1]: 0.0024 s⁻¹
Kd [2]: 25.5 nM
koff [2]: 0.00238 s⁻¹
Kd [3]: 22.2 nM
Kd [4]: 26.5 nM
B1: DIDO3 PHD domain (domain or fragment)
chain: PNALYCICRQPHNNRFMICCDRCEEWFHGDCVGISEARGRLLERNGEDYICPNCTILQVQ
